Results as given in article doi:10.1101/2021.11.12.467822 (bioRxiv, 2021).

What was measured:
M1-linked Ub4 [1] = target: M1-linked Ub4 (UniProt P0CG48); assay: NMR titration
HOTag6-G10-Ub [2] = assay: NMR titration
M1-linked Ub4 [3] = target: M1-linked Ub4 (UniProt P0CG48); assay: fluorescence polarisation
HOTag6-G10-Ub [4] = assay: fluorescence polarisation
ubiquitin (Ub) = ubiquitin (Ub) (UniProt P0CG48 1-76); assay: fluorescence polarisation

Sequence of M1-linked Ub4 (P0CG48 1-304): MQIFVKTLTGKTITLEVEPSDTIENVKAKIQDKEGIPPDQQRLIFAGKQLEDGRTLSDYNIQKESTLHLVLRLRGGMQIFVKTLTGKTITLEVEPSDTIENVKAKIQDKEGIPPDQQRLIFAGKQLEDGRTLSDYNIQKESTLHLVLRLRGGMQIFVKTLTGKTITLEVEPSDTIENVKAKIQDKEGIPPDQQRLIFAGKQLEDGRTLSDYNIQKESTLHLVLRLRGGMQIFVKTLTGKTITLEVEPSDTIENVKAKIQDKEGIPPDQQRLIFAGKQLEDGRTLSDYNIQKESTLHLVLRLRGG

| Binder | Kd (M1-linked Ub4 [1]) | Kd (HOTag6-G10-Ub [2]) | Kd (M1-linked Ub4 [3]) | Kd (HOTag6-G10-Ub [4]) | Kd (ubiquitin (Ub)) |
| --- | --- | --- | --- | --- | --- |
| UBQLN2 450-624 (domain or fragment) RAMQALMQIQQGLQTLATEAPGLIPSFTPGVGVGVLGTAIGPVGPVTPIGPIGPIVPFTPIGPIGPIGPTGPAAPPGSTGSGGPTGPTVSSAAPSETTSPTSESGPNQQFIQQMVQALAGANAPQLPNPEVRFQQQLEQLNAMGFLNREANLQALIATGGDINAAIERLLGSQPS | 12.8 µM | 8.8 µM | – | – | – |
| fluorescently-labeled UBQLN2 450-624 (S624C, Alexa Fluor 488) (domain or fragment, Alexa Fluor 488 C5 Maleimide label (S624C mutation)) RAMQALMQIQQGLQTLATEAPGLIPSFTPGVGVGVLGTAIGPVGPVTPIGPIGPIVPFTPIGPIGPIGPTGPAAPPGSTGSGGPTGPTVSSAAPSETTSPTSESGPNQQFIQQMVQALAGANAPQLPNPEVRFQQQLEQLNAMGFLNREANLQALIATGGDINAAIERLLGSQPC | – | – | 5.1 µM | 7 µM | 3.4 µM |
